Laboratory results taken from paper PMC3784395, “Ectopic Expression of WUS in Hypocotyl Promotes Cell Division via GRP23 in Arabidopsis”.

T1: GST-WUS (WUSCHEL) (UniProt Q9SB92 1-292)
T1 sequence: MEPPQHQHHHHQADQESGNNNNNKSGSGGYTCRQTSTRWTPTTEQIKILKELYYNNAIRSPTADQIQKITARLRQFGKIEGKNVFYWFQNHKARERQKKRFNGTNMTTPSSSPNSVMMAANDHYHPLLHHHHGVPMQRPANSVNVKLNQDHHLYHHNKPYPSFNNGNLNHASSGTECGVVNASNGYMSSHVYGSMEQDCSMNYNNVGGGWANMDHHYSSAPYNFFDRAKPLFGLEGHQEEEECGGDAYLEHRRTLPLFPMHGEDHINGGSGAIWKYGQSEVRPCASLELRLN


Legend:
GST-WUS (WUSCHEL) [1] = target: T1, GST-WUS (WUSCHEL); assay: competition; unlabeled mutant competitor up to 800x excess vs labeled N1; Lightshift Chemiluminescent EMSA kit (Pierce), per manufacturer; buffer, salt, pH and temperature not stated; conditions: protein: recombinant; chain copies: 2; blunt
GST-WUS (WUSCHEL) [2] = target: T1, GST-WUS (WUSCHEL); assay: EMSA; Lightshift Chemiluminescent EMSA kit (Pierce), per manufacturer; buffer, salt, pH and temperature not stated; conditions: protein: recombinant; chain copies: 2; label: 3' biotin on both strands (probe); blunt

Binder	binding result (GST-WUS (WUSCHEL) [1])	binding result (GST-WUS (WUSCHEL) [2])
GRP23 promoter mutant (both TAAT to GGGG) (dsDNA) DNA 1: CATATATCTTGGGGACTGTGGGGGATCTTTCTTCAAAAAC DNA 2: GTTTTTGAAGAAAGATCCCCCACAGTCCCCAAGATATATG	no binding	
GRP23 promoter probe wt (-748 to -709) (dsDNA) DNA 1: CATATATCTTTAATACTGTTAATGATCTTTCTTCAAAAAC DNA 2: GTTTTTGAAGAAAGATCATTAACAGTATTAAAGATATATG		binds
